Protein production data for 13 sequences are collected here from a protein production outcome set (Wang et al. 2014).

The nature of the series: label from the status in PepcDB records.

Regarding “MRNLKLRYCKELNAVAHPQHLLLQPELNGGASDIYFVVADNKIYAVQESGDVRLKVIADLPDIVGVEFLQLDNAICVASGAGEVILVDPQTGATSEGTFCDVGIESMAWSPNQEVVAFVTRTHNVVLMTSTFDVIAEQPLDAELDPDQQFVNVGWGKKETQFHGSEGKQAAKQKESDSTFIRDEQELNQDVSISWRGDGEFFVVSYVAAQLGRTFKVYDSEGKLNHTAEKSANLKDSVVWRPTGNWIAVPQQFPNKSTIALFEKNGLRHRELVLPFDLQEEPVVQLRWSEDSDILAIRTCAKEEQRVYLYTIGNYHWYLKQVLIFEQADPLALLHWDTRCGAEHTLHVLKESGKHLVYRWAFAVDRNNSIVGVIDGKRLLLTDFDEAIVPPPMSKIVLKFETYINAFISHGTSLWVYTCDRKIYLNEHIHTLGKELQKPIMLMPDAELSGLHLANLTHFSPHYLLATHSSAGSTRLLLLSYKDNDNKPGEWFYRVHSSVRINGLVNAVAVAPYAMNEFYVQTVNNGHTYEVSLKADKTLKVERSYVQLHEPADQIDWVIVKGCIWDGYTGALVTLRNQHLLHIDGYRIGEDVTSFCVVTNYLVYTQLNAMHFVQLDDRRQVASRNIERGAKIVTAVARKARVVLQLPRGNLEAICPRVLVLELVGDLLERGKYQKAIEMSRKQRINLNIIFDHDVKRFVSSVGAFLNDINEPQWLCLFLSELQNEDFTKGMYSSNYDASKQTYPSDYRVDQKVEYVCRLLEQQMNRFVSRFRLPLITAYVKLGCLEMALQVIWKEQQEDASLADQLLQHLLYLVDVNDLYNVALGTYDFGLVLFVAQKSQKDPKEFLPYLNDLKALPIDYRKFRIDDHLKRYTSALSHLAACGEQHYEEALEYIRKHGLYTDGLAFYREHIEFQKNIYVAYADHLRAIAKLDNASLMYERGGQLQQALLSAKHTLDWQRVLVLAKKLSEPLDQVAQSLVGPLQQQGRHMEAYELVKEHCQDRKRQFDVLLEGHLYSRAIYEAGLEDDDVSEKIAPALLAYGVQLESSLQADLQLFLDYKQRLLDIRRNQAKSGEGYIDTDVNLKEVDLLSDTTSLHSSQYSGTSRRTGKTFRSSKNRRKHERKLFSLKPGNPFEDIALIDALHNHVTKIAQQQQPVRDTCKALLQLANAADADPLAAALQREFKTLLQAVDAALDEIWTPELRGNGLMADHLTGPNVDYLALQKEQRYALLSPLKRFKPQLIMMDWQHEILQ”, the protein production entry is “failed”.
As to “MRNLSRRIQSHQIRLRPPPFGAKRPVRRSESTSPPPRRRLIVGKRNRSAQVQYSMSHGLTHLSFWPLLFATLALTHVTIVSVTIFLHRHQAHRALSLHPLASHFFRFWLWLTTATVTKEWVSIHRKHHARCETPDDPHSPQCLGIFTVLLRGWMLYRKEARNTATLAQFGNGTPDDWLERKLYSRFPDLGITLMLALNLLLFGIGGLGVWAVQMLWIPFWAAGVVNGLGHHLGYRNFETPDASTNLWPIGFIIGGEELHNNHHAYPASAKFSSRRWEIDIGWLYIRLMTLLKLAKIRNMPPKTIIHTAEPSVDMDTVKAVLRNRAHVLSLYGRRVIVPVLRSEQAKSPKAGRRLLRQTRPLLLREYIKADPAAWHNFSRMLEDSQTLATIFQFKQQLKAVWTDSFTSHEERLERLRAWCLQAKQSDLPWLQHFADTLSGYRLQPAH”, the protein production entry was “failed”.
With “MRNPFERMPTVLTADELIDKAFRRAEKAASSFKPRGNKVKKARLREELRVRTVSNVVRDNLRKVLERTPGLSTLPKFYQELVDVLVDRDTFHKAMAGIDWAIRIIRELEERYVERIRYSNDPNEIAELRRQFYGRVASVLRDIDDRLRYLNKAREVLKDLPVVDLEIPTVVIAGHPNVGKSTLLKALTTAKPEIASYPFTTRGINVGQFEDGYFRYQIIDTPGLLDRPISERNEIEKQAILALRYLGNLIIYIFDPSEHCGFPLEEQIHLFEEVHGEFKDLPFLVVINKIDVADEENIKRLEKFVKEKGLNPIKISALKGTGIDLVKEEIIKTLRPLAEKVAREKIERELRRYRSYLLEHHHHHH”, the protein production result is listed as “failed”.
As for “MRNTDDYIIFYHLVEQGSFSSAARHMELTKSVVSKRIAKLEQELGVQLLYRTTRTLTLTEAGQSFFVHAKAVYKAVATAEESIVGLGKNLSGNIKITVPTISGELILPGVISEFNDKYPDINIDMELDNRFVDIVNERFDLAIRTGMLPDSSLIARKLVDANWVVCASPKYLAKHGIPKQPIELTKHNCLVYSYQETGAREWAFKAGDKMYQVTVDGNLCTNNSSALRNVALLGQGVIYVPRVLVYEDLKQGSLIQLFKEETAKCLGIYAVYPYTRQQPEKIKIFIDHLYNSFQSQNHRF”, the protein production entry is recorded as “failed”.
As to “MRNTILFGVSMILLANLCFGIMSAFVKITADYFSPMENVFYRSITMTLLLLLIYPFKPYRLKSYKQGGFKKLAFRVVVGGLAMLAFFYNIEKISLATATAFSQCAPIYTVLLSPLLLKEKLKRSTLISACIGIVGVVLISDPSVENVGPVEIFMGILSGIFVSLAYITLRDLREYYDKQAVILAFAFGMSLLGLVGMFIDIPFLSTGIHVPRKEDILWISLIGISGTLGQYFLTYAYMNAPAGIIAPIEYTRIVWGLLFGLYLGDTFLDLKSSLGVALILCSGLLIALPALLKELKKI”, the protein production entry is recorded as “failed”.
Regarding “MRPGSVKRLYGVNTVQYAPCFMRDHRRDGIPHGNLPLELDAFVGRGAQLAELARTLDSARLVTLTGSGGVGKSRLAARAAARRAPRGGVWRVQLAPVRDEEFVDYAVVEALGLTDHTTRLPRETLLAHLAERELLLLLDGVEHLVDACAALVTELLGRAPGLTVLAVGRRPLGVAGERLVPLAPLGTEEAVELLTVRAGQRSVARDHDADPDADQREMRELCRRLDGIPLAIELAAGRLDALSPGQMLRRLDDRFRLLTGGDRTALPRHRTLRTAIGWSHELCTPPERLLWARLSVFAGPFDLEAAEYVCSGDGMPADDVLDVLCALLSQSVLTREESPAGVRYRMLDTVRAYGADWLAATGDADRLRRRHRDWYVGLATWCELEWFSPRQGEVAARVDAELPNLRSALEHCLDEPDGAHLGQYLAGALWFHWVGCGRLSEGRHWLEQAVRLDAEPTAGEQSRLKALWVLAYVAILQGDTVPALAALQECREEAERSANPTAAAYAEHRTGCLALVTDDLPRAETLLRSALHRYREIGELNSNVLMGQVELAMARAFQGDLPDAVRLCEDVRQVCEDHGERWARGYALYVLAYAAWSDGEPVRARELLADCLGSAHRFRDQLGSVLAVELLALVTVAEGDAAEAAVLQGAAGRMWPSVGLPLFGSAHYNAPHELCEAAAREQLGDERYEECVRHGARLGRREAVARALRRPGARASLPAPRPTAVRRAPAGARTAKPAASPTRKGGETAG”, the protein production result is recorded as “failed”.
Turning to “MRPKANQNHKLKVLLVFLLATLILIFIVRSTLTSSQEHQTPQETRSTRCSGACNKLPRSLAQALIHYSTSVITPQQTLKEIAVSSRVLGKKSPCNFLVFGLGHDSLMWSSLNYGGRTVFLEEDEAWIKQIKRRFPMLESYHVTYDSKVNQADNLIEVGKGPECTAIGDPRYSMCQLALKGLPAEIYETGWDLIMVDAPTGYYDEAPGRMTAIYTAGMMARNRKQGGETDVFVHDVNREIEDKFSKAFLCEGYMKKQEGRLRHFIIPSYRDGSESESNRPFCP”, the protein production entry is on record as “failed”.
In the case of “MRPLEDDEPTVVGPYRLLGRLGSGGMGRVYLGRSAGGRTVAVKIVHPHFALDEEFRARFRREVAAARRVGGAWTAPVLDADPEARVPWVATAYAAGPSLTAAVADGGPLPAHSVRALGAGLGEALAAVHELGLVHRDVKPSNVLLTLDGPLLIDFGIARATGGTSPTQSGGGTASLTSTGVSIGSPGYMSPEQILGKGVTGAADVFSLGAVLAYATTGQPPFPGDSSAALLYKVVHEEPNLDGLDDGELRELVASCLAKDPSARPAPAEVARRLAPEGAARLVTGGWLPGALVERVSRSAVRLLNLEAGESATGASGPVGFSRPSVTAGGDAGVATPASGVFGPPPVMPAPTSPSYPPSPPAPAPAPSPALLSVPGPRHPGPPDDDPGAGTGTTRPPGRLALSVAATSTQGAQGRGRRISCTVALAVAGALAAVTVGSVFVLDLLPGSGNDANNAGGNEASHDPPAATPGGLPARYLGTWEGQAAALDGKLPLGTFRITIKQAKAGQELGRLRQTDALGGVCVDVITLKKVTEKQLVAGSAGAEGNHDGCNPAPTTVTFTPVGDDLDYASKSEESGRPTARLSKVG”, the protein production entry is “failed”.
In the case of “MRPSAPNIWIWKVSNLASDPRETVSGEWYAARSNLSSAARLRHGGTLLLVLDAKDNHVITKAEIKAVEISHRVGTIPREIHFPDGSLFETSDNEGVDRLLGLYLPKRAGFVHRLEQFRPRLIGITAAAVLLAYGTYKLALPAVVELAVAMTPPIVPKIMSASTMQALDQTVFSASELPLEEQNAIRVQFSRIAAHAEGSPEDYKLNFRKGGYIGPNAFALPDGTLVLTDELVELAGGDRQMIIGVLAHEIGHVEYEHSLRQLYRAAGVAGLVMLIAGDVGSAMEDILTQGGGLLALSHSRDAERQADQRSVELMRKADLDPTAIERFFALLEEKLGDKGGTSIISTHPGTPQRRKAIIDYNASLDNKPAGNLEHHHHHH”, the protein production entry was “failed”.
The same measure for “MRPTITALVLTYNGERLLDRCLGSLAFCDRILVVDSFSTDATVAIAQAAGAEVLQRKWEGPGPQFAFALEKISDGWIVSLDQDEICSEELRDSILAATAADSGEAGYWIPRRSWYFDRFLKHSGWYPDHLLRLFRAGRMRVEVSGAHYSFHPDGETGTLTGDILHYPYESFRQHLDKVNDYAQKGADDLRAKGKRGGLCAGLCHGAGRFIRIYIIKRGFLDGRAGFINAIHGAFYAFLKHLRIEEGDWGRPFEHKLEHHHHHH”: “not failed”; for “MRQARGRVHKNLGARVGSARPRSSLGHRTGIMKGQDMPGTVRLHRVLTTSPEKVYRAFVEADALAKWLPPNGFTCTVDHLEAKVGGTFKMSFRNFTTGGSHAFGGEYLELVPGERLRYTDRFDDPNLPGEIQVTVILKKVSVGTEIDITQAGIPDVIPVEACYLGWQESLRNLAKLVEPEINQ”: “failed”; for “MRQIPQNHIHTRSTPFWNKETAPAGIFERHLDKGTRPGVYPRLSVMQGAVKYLGYADEHCSEPEEIMVINAGEFGVFPPEKWHNIEVMTDDTYFNIDFFVAPEVLMEGATSRKVIHAGRE”: “failed”.
On to “MRQKETTATTRFSLLPGSITRFFLLLIIVLLVTMGVMVQSAVNAWLKDKSYQIVDITHAIQKRVDNWRYVTWQIYDNIAATTSPSSGEGLQETRLKQDVYYLEKPRRKTEALIFGSHDNSTLEMTQRMSTYLDTLWGAENVPWSMYYLNGQDNSLVLISTLPLKDLTSGFKESTVSDIVDSRRAEMLQQANALDERESFSNMRRLAWQNGHYFTLRTTFNQPGHLATVVAFDLPINDLIPPGMPLDSFRLEPDATATGNNDNEKEGTDSVSIHFNSTKIEISSALNSTDMRLVWQVPYGTLLLDTLQNILLPLLLNIGLLALALFGYTTFRHFSSRSTENVPSTAVNNELRILRAINEEIVSLLPLGLLVHDQESNRTVISNKIADHLLPHLNLQNITTMAEQHQGIIQATINNELYEIRMFRSQVAPRTQIFIIRDQDREVLVNKKLKQAQRLYEKNQQGRMIFMKNIGDALKEPAQSLAESAAKLNAPESKQLANQADVLVRLVDEIQLANMLADDSWKSETVLFSVQDLIDEVVPSVLPAIKRKGLQLLINNHLKAHDMRRGDRDALRRILLLLMQYAVTSTQLGKITLEVDQDESSEDRLTFRILDTGEGVSIHEMDNLHFPFINQTQNDRYGKADPLAFWLSDQLARKLGGHLNIKTRDGLGTRYSVHIKMLAADPEVEEEEERLLDDVCVMVDVTSAEIRNIVTRQLENWGATCITPDERLISQDYDIFLTDNPSNLTASGLLLSDDESGVREIGPGQLCVNFNMSNAMQEAVLQLIEVQLAQEEVTESPLGGDENAQLHASGYYALFVDTVPDDVKRLYTEAATSDFAALAQTAHRLKGVFAMLNLVPGKQLCETLEHLIREKDVPGIEKYISDIDSYVKSLL”, for which the protein production result is given as “failed”.
